Test results published in the Human Domainome abundance scans (Beltran et al. 2025).

B1: Far upstream element-binding protein 1, residues 184 to 257; numbered along this chain, Q96AE4 (parent)
chain: GNAVQEIMIPASKAGLVIGKGGETIKQLQERAGVKMVMIQDGPQNTGADKPLRITGDPYKVQQAKEMVLELIRD

Variants of: B1
Experiment: abundance fitness (aPCA) (normalised: wild type 0, dead -1); higher = more abundant; growth selection in yeast, the domain comes from the species named
Conditions: Homo sapiens

Abundance fitness of substitutions, site by site:
D49: K -0.087; C -0.057; S -0.077; Q -0.096; H -0.012; Y -0.015; N -0.034; T -0.045; G -0.084; F -0.081; A -0.029; P -0.01; I -0.148; V -0.068; R -0.129; W -0.114; L -0.052
A64: C -0.118; D -0.725; N -0.772; M -0.469; K -0.758; I -0.561; H -0.967; F -0.754; L -0.839; P -0.784; E -0.694; G -0.051
V61: T -0.154; R -0.672; E -0.787; A -0.22; D -0.881; P -0.758; I -0.091; M -0.236; C -0.062; K -0.847; W -1.17; Q -0.528; N -0.764; L -0.286; F -0.599; G -0.627; S -0.427; H -0.814
D57: E 0.019; V -0.085; H -0.022; G -0.218; Q -0.018; L -0.119; N -0.083; C -0.093; F -0.285; P -0.018; W -0.387; M -0.138; Y -0.208; A -0.017; T -0.028
I54: F -0.175; R -1.06; Y -1.19; D -0.829; G -0.913; N -1.22; P -1.08; C -0.504; K -0.878; M -0.074; Q -0.902; S -0.522; E -0.883; W -1.06; L -0.069; V -0.148; H -1.03; A -0.807; T -0.723
L52: W -0.738; M -0.047; I -0.055; D -0.702; Q -0.97; K -0.841; G -0.886; H -0.853; V -0.145; T -0.878; C -0.229; N -0.746; A -0.807; E -0.956; S -0.918
R53: L -0.075; N -0.257; K -0.025; A -0.14; F -0.116; W -0.205; T 0.008; C -0.111; G -0.52; E -0.116; D -0.616; S -0.148; Q -0.009; M -0.031; H -0.046; I -0.049; P -0.941
K60: C 0.002; G -0.086; Y -0.233; F -0.277; D -0.164; P -0.179; W -0.314; T -0.278; M -0.118; I -0.653; Q -0.037; N 0.029; A -0.036; R -0.052; H -0.01; V -0.581; E -0.187; L -0.065
P58: C -0.1; G -0.034; M -0.014; H -0.003; V -0.031; Q -0.079; T -0.002; Y -0.022; N -0.139; L -0.068; S -0.064; E -0.004; R 0; A -0.012; W -0.044; K -0.016
G56: D -0.803; A -1.01; T -1.12; E -1.05; P -1.18; K -0.942; W -1.22; F -0.971; I -1.14; H -1.09; S -1.02; R -1.04; L -1.28; V -1.26; C -1.08; N -0.668; Y -1.25; Q -0.962
Q62: H -0.069; W -0.114; M -0.075; T -0.011; R -0.059; F -0.105; C -0.037; E 0.02; V -0.049; K -0.022; G -0.03; N -0.097; Y -0.04; A 0.007
G47: N -0.034; W -0.157; H -0.167; M -0.043; S -0.001; K 0.061; P -0.108; T -0.018; R -0.096; L -0.069; V -0.054; I -0.168; D -0.043; Q -0.027; E -0.038; A -0.02; F -0.014
Q63: T -0.039; R -0.026; K 0; H -0.069; V -0.038; F -0.116; I -0.025; P -0.408; A -0.022; C 0.013; G -0.058; Y -0.027; S -0.061; M -0.026; N -0.107; E 0.006; D -0.116
P51: D -0.358; H -0.026; I -0.086; F -0.077; M 0.028; E -0.014; C -0.005; A -0.011; T -0.018; R 0.007; N -0.049; Y -0.059; K -0.03; L -0.057; Q -0.108; W -0.066
T46: M -0.028; W -0.136; P -0.012; R -0.046; F -0.085; G -0.024; C -0.058; Q -0.022; S -0.04; V -0.004; N -0.074; H -0.055; Y -0.115; K -0.066; A -0.073; I -0.062; L -0.038
Y59: R 0.032; A 0.011; I 0.046; V -0.024; T 0.047; K 0.036; C -0.003; N 0.047; M -0.043; W 0.021; G 0.029; H 0.044; P 0.015; L 0.026; S 0.006; E 0.009; D 0.057; F -0.003
T55: W -0.115; E -0.086; H -0.096; Q -0.022; R -0.152; K -0.165; I -0.023; V -0.047; M -0.008; L -0.05; C -0.065; D -0.111; F -0.062; P -0.963; Y -0.132; N -0.138; S -0.053
A48: M 0.02; N -0.086; S -0.035; W -0.124; P -0.042; C 0.053; D 0.077; G 0.002; T 0.013; V -0.015; K 0.003; E 0.021; F -0.01; I 0.005; R -0.018
N45: Y -0.091; A -0.019; E -0.024; D 0.013; K -0.008; R -0.022; M -0.055; G -0.008; F 0.023; L -0.128; W -0.105; P -0.055; H -0.022; I -0.029; S -0.057; V -0.057
Q44: Y -0.002; V -0.067; S -0.04; W -0.088; R -0.048
K50: C -0.057; D -0.525; W -0.058; S -0.068; R -0.005; P -0.202; Y 0.018; G -0.201; E -0.202; T -0.019; H -0.04; A -0.027; I -0.068; V -0.005; N -0.071; L 0.019; M -0.035
